# Source: patent US20040110933A1
# B1: BE-A11 (Fab displayed on phage) (Fab, V domains shown)
# VH: EVQLLESGGGLVQPGGSLRLSCAASGFTFSKYSMEWVRQAPGKGLEWVSRIYPSGGPTLYADSVKGRFTISRDNSKNTLYLQMNSLRAEDTAVYYCARDSYGMDVWGQGTTVTVSS
# VL: QSVLTQPASVSGSPGQSITISCTGTSSDVGGYSYVSWYQQHPGKAPKLMIYEVSNRPSGVSNRFSGSKSGNTASLTISGLQAEDEADYYCNSYTSSSTKMFGGGTRLTVL
# How the values were obtained:
# [1] = biological target: biotinylated CD44Fc (human) (UniProt P16070); assay: phage ELISA on b-CD44Fc, no competitor
# [2] = biological target: biotinylated CD44Fc (human) (UniProt P16070); assay: competition phage ELISA on b-CD44Fc, competitor S5 (450 ng) pre-incubated
binder,measurement,setting,value
B1,phage ELISA signal (column CD44),[1],1.08
same,phage ELISA signal (column CD44 + S5),[2],0.261
